Measured values as given in patent publication US20240034774A1 (Gilead, published 2024).
Positions count from the first letter of the chain named.

B1: 1.15.1-1 (antibody, human IgG1, kappa)
heavy: QVQLLQSGAAVTKPGASVRVSCEASGYNIRDYFIHWWRQAPGQGLQWVGWINPKWGQPNNPRQFQGRVSLTRHASWDFDTFSFYMDLKALRSDDTAVYFCARQRSDYWDFDVWGSGTQVTVSSASTKGPSVFPLAPSSKSTSGGTAALGCLVKDYFPEPVTVSWNSGALTSGVHTFPAVLQSSGLYSLSSVVTVPSSSLGTQTYICNVNHKPSNTKVDKKVEPKSCDKTHTCPPCPAPELLAGPDVFLFPPKPKDTLMISRTPEVTCVVVDVSHEDPEVKFNWYVDGVEVHNAKTKPREEQYNSTYRVVSVLTVLHQDWLNGKEYKCKVSNKALPLPEEKTISKAKGQPREPQVYTLPPSREEMTKNQVSLTCLVKGFYPSDIAVEWESNGQPENNYKTTPPVLDSDGSFFLYSKLTVDKSRWQQGNVFSCSVLHEALHSHYTQKSLSLSPGK
light: DIQMTQSPSSLSASVGDTVTITCQANGYLNWYQQRRGKAPKLLIYDGSKLERGVPSRFSGRRWGQEYNLTINNLQPEDIATYFCQVYEFVVPGTRLDLKRTVAAPSVFIFPPSDEQLKSGTASVVCLLNNFYPREAKVQWKVDNALQSGNSQESVTEQDSKDSTYSLSSTLTLSKADYEKHKVYACEVTHQGLSSPVTKSFNRGEC
B2: 1.19.1-1 (antibody, human IgG1, kappa)
heavy: B1 heavy with W55T, S69T
light: B1 light
B3: 1.31.1-1 (antibody, human IgG1, kappa)
heavy: B1 heavy with L5V, A10E, W55T, V97T
light: B1 light
B4: 1.31.31-1 (antibody, human IgG1, kappa)
heavy: B1 heavy with L5V, A10E, W55T, V97T
light: B1 light with N68T, N72S, N73S, R95N
B5: 1.32.31-1 (antibody, human IgG1, kappa)
heavy: B1 heavy with L5V, A10E, W55T, S105T
light: B1 light with N68T, N72S, N73S, R95N
B6: 1.32.32-1 (antibody, human IgG1, kappa)
heavy: B1 heavy with L5V, A10E, W55T, S105T
light: B1 light with N68T, N72S, N73S, V91T
B7: 1.33.34-1 (antibody, human IgG1, kappa)
heavy: B1 heavy with L5V, A10E, T12K, E23K, W55T, S69T, V97T
light: B1 light with K49N, N68T, N72S, N73S, V91T, L98I
B8: 1.25.1-1 (antibody, human IgG1, kappa)
heavy: B1 heavy with W55T, K88S, A89R
light: B1 light
B9: 1.31.33-1 (antibody, human IgG1, kappa)
heavy: B1 heavy with L5V, A10E, W55T, V97T
light: B1 light with K49N, N68T, N72S, N73S, R95N, L98I
B10: 1.31.32-1 (antibody, human IgG1, kappa)
heavy: B1 heavy with L5V, A10E, W55T, V97T
light: B1 light with N68T, N72S, N73S, V91T
B11: 1.18.1-1 (antibody, human IgG1, kappa)
heavy: B1 heavy with W55H
light: B1 light
B12: 1.34.31-1 (antibody, human IgG1, kappa)
heavy: B1 heavy with L5V, A10E, T12K, E23K, W55T, S69T, S105T
light: B1 light with N68T, N72S, N73S, R95N
B13: 1.33.32-1 (antibody, human IgG1, kappa)
heavy: B1 heavy with L5V, A10E, T12K, E23K, W55T, S69T, V97T
light: B1 light with N68T, N72S, N73S, V91T
B14: 1.16.1-1 (antibody, human IgG1, kappa)
heavy: B1 heavy with W55G
light: B1 light
B15: 1.28.1-1 (antibody, human IgG1, kappa)
heavy: B1 heavy with W55T, V97T, S105T
light: B1 light

How the values were obtained:
BSA = BSA (UniProt P02769 25-607); assay: single-point ELISA, BSA control
gp120 SHIV SF162 P3 = gp120 SHIV SF162 P3 (SHIV SF162 P3); assay: single-point ELISA at EC50 conc. of A-1
gp120 CAAN = gp120 CAAN (HIV (CAAN)); assay: single-point ELISA at EC50 conc. of A-1
gp120 Bal = gp120 Bal (HIV (Bal)); assay: single-point ELISA at EC50 conc. of A-1

| Binder | ELISA A450 (BSA) [A450] | ELISA A450 (gp120 SHIV SF162 P3) [A450] | ELISA A450 (gp120 CAAN) [A450] | ELISA A450 (gp120 Bal) [A450] |
| --- | --- | --- | --- | --- |
| B1 | 0.06 | 1.24 | 1.38 | 0.87 |
| B2 | 0.06 | 0.96 | 0.93 | 0.85 |
| B3 | 0.06 | 0.87 | 0.92 | 0.82 |
| B4 | 0.07 | 0.97 | 1.02 | 0.98 |
| B5 | 0.07 | 0.66 | 0.9 | 0.95 |
| B6 | 0.08 | 0.7 | 0.9 | 0.89 |
| B7 | 0.06 | 0.82 | 0.95 | 0.95 |
| B8 | 0.06 | 1.03 | 1.16 | 1.07 |
| B9 | 0.06 | 0.74 | 0.86 | 0.89 |
| B10 | 0.06 | 0.91 | 1.04 | 0.98 |
| B11 | 0.07 | 1.36 | 1.18 | 0.97 |
| B12 | 0.06 | 0.77 | 0.92 | 0.91 |
| B13 | 0.07 | 0.98 | 1.13 | 0.98 |
| B14 | 0.07 | 0.9 | 0.87 | 0.92 |
| B15 | 0.06 | 0.99 | 0.99 | 1.05 |
